# Reference: the RNAGym collection of RNA variant scans (doi:10.1073/pnas.2313332121)
# B1: TPR t1 (parent)
# chain: GACCAAUCUGCCCUCAGAGCUCGAGAACAUCUUCGGAUGCAGAGGAGGCAGGCUUCGGUGGCGCGAUAGCGCCAACGUCCUCAACCUCCAAUGCAUCCCACCACAUGAUGAUGCCUGAAGAGCCUUGGUUUUUUG
# Variants of: B1
# Experiment: polymerase ribozyme fitness, log enrichment relative to wild type (log ratio); higher = more active; in vitro selection for triplet polymerase activity
# Outline: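 To select mutant libraries of each subunit of a heterodimeric triplet polymerase ribozyme, built by PCR and transcribed, each was annealed with a biotinylated primer, partner subunit and triplets, then incubated frozen at −7 °C. Extended constructs were gel-excised, captured on streptavidin beads and amplified by RT-PCR, in one round carried out in triplicate. Illumina sequencing of input and output libraries kept genotypes with ≥10 input reads and ≥1 read per output. Fitness is the base-2 logarithm of genotype enrichment relative to wild-type enrichment, from inverse-variance-weighted replicate averages.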
row,Variant,polymerase ribozyme fitness (log ratio)
1,GACCAAUCUCCCCUCAGAGCUCGAGAACCUCUUCGGAUGCAGAGGAGGCAGGCUUCGGUGCCGCGAUAGCGCCAACGUCCUCAACCUCCAAUGCAUCCCACCACAUGAUGAUGCCUGAAGAGUCAUGGUUUUUUA [G10C A29C G61C C123U U125A G135A],-4.26
2,GACCAAUCUCCCAUCAGAGCUCGAGAACAUCUUCGGAUGCAGAGGAGGCAGGCUUCGGUGGCGCGAUAGCGCCAACGUCCUUCACCUCCAAUGCAUCCCACCACAUGAUGAUGCCUGAAGAGCCUUGGUUUUUUG [G10C C13A C82U A83C],-0.888
3,GACCAAUCUCCCGUCAGAGCUCGAGAACAUCUUCGGAUGCAGAGGAGGCAGGCUUCGGUGGCGCGAUAGCGCCAACGUCCUCAACCUCCAAUGAAUCCCACCACAUGAUGAUGCCUGAAGAGCCUUGGUUUUUUG [G10C C13G C94A],-0.274
4,GACCAAUCUCCCCUCAGAGCUCGAGAACAUCUUCGGUUGCAGAGGAGGCAGGCUUCGGUGGCGCGAUAGCGCCAACGUCCUCAGACUCCAAUGUAUCCCAGCACAUGAUGAUGCCUGAAGAGCCUUGGUUUUUUG [G10C A37U A84G C85A C94U C101G],-4.54
5,GACCAAUCUCCCCUCAGAGCUCGAGAACAUCUUCGGAUGCAGGGGAGGCAGGCUUCGGUGGCGCGAUAGCGCCAACGUCCUCAACCUCCAAUGCAUCCCACCACAUGAUGAUGCCUGAAGAGCCUUGGUUUUUUG [G10C A43G],-3.12
6,GACCAAUCUCCCCUCUGAGCUCGAGAACAUCUUCGGAUGCAGAGGAGGCAGGCUUCGGUGGCGCGAUAGCGCCAACGUCCUCAACCUCCAAUGCAUCCCACCACAUGAUGAUGCAUGAAGAGCCUUGGUUUUUUG [G10C A16U C115A],-2.52
7,GACCAAUCUCCCCUCAGAGCUCGAGAACAUCUUCGGAUGCAGAGGAGGCAGGCUUCGGUGGCGCGAUAGCGCCAACGUCCUCAACCUCCAAUGCAUCCCACCACAUGCUGAUGGCUGAAGAGCCUUGGUUUUUUG [G10C A108C C114G],-5.74
8,GACCAAUCUCCCCUCAGAGCUCGAGAACAUCUUCGGAUGCAGAGGAGGCGGGCUUCGGUGGCGCGAUAUCGCCAACGUCCUCAACCUCAAAUGCAUCCCACCACAUGAUGAUGCCUGAAGUGCCUUGGUUUUUUG [G10C A50G G69U C89A A121U],0.925
9,GACCAAUCUCCCCUCCGAGCUCGAGAACAUCUUCGGAUGCAGAGGAGGCAGGUUUCGGUGGCGCGAUAGCGCCAACGUCCUCAACCUCCAAUGCAUCCCACCACAUGAUGAUGCCUUAAGAGCCUUGGUUUUUUG [G10C A16C C53U G117U],-4.5
10,GACCAAUCUCCCCUCAGAGCUCGAGAACAUCUUCGGAUGCAGAGGAGGCAGGCUUCGGUGGCGCGCUAGCGCCAACGUUCUCAACCUCCAAUGCAUCCCACCACAUGAUGAUGCCUGAAGAGCCUUGGUUUUUUG [G10C A66C C79U],-2.72
11,GACCAAUCUCCCCUCAGUGCUCGAGAACAUCUUCGGAUGCAGAGGAGGCAGGCUUCGGUGGCGCGAUAGCGCGAACGUCCUCAACCUCCAAUGCAUCCCACCACAUGAUGAUCCCUGAAGAGCCUUGGUUUUUUG [G10C A18U C73G G113C],-5.21
12,GACCAAUCUCCCCUCAGAGCUCGAGAGCAUCUUCGGAUGCAGUGGAGGCAGGCUUCGGUGGCGCGAUAGCGCCAACGUCCUCAACCUCCAAUGCAUCCCACCACAUGAUUAUGCCUGAAGAGCCUUGGUUUUUUG [G10C A27G A43U G110U],-5.07
13,GACCAAUCUCCCCUCAGCGCUCGAGAACAUCUUCGGAUGCAGAGGAGGCAGGCUUCGGUGGUGCGAUAGCGCCAACGUCCUCAACCUCCAAUGCAUCCCACCACAUGAUGAUGCCUGAAGAGCCUUGGUUUUAUG [G10C A18C C62U U133A],-3.86
14,GACCAAUCUCCCCUCAGAGCUCGAGAACAUCUUCGGCUGCAGAGGAGGCAGGCUUCGGUGGCGCGAUAGCGCCAACGUCCUCAACCUCCAAUGCAUCCCACCACAUGAUGAUGCCUGAAGAGCCUUGGUUUUUUG [G10C A37C],-1.41
15,GACCAAUCUCCCCUCAGAGCUCGAGAACAUCUUCGGAUGCAGAGGAGGCAGGCUUCGGUGGCGCGAUAGCGCCAUCGUCCUCAACCUCCAAUGCAUCACACCACAUGAAGAUGCCUGAAGAGCCUUCGUUUUUUG [G10C A75U C98A U109A G127C],-5.13
16,GACCAAUCUCGCCUCAGAGUUCGAGAACAUCUUCGGAUGCAGUGGAGGCAGGCUUCGGUGGCGCGAUAGCGUCAACGUCCUCAACCUCCAAUGCAUCCCACCACAUGAUGAUGCCUGAAGAGCCUUGGUUUUUUG [G10C C11G C20U A43U C72U],-2.23
17,GACCAAUCUCCCGUCAGAGCUCGAGAACAUCUUCAGAUGCAGAGGAGGCAGGCUUCGGUGACGCGAUAGCGCCAACGUCCUCAACCUCCAAUGCAUCCCACCACAUGAUGAUGUCUGAAGAGCCUUGGUUUUUUG [G10C C13G G35A G61A C114U],-5.47
18,GACCAAUCUCCCCUCAGUGCUCGAGAACAUCUUCGGAUGCAGAGGAGGCAGGCUUCGGUGGCGCGAUAGCGCCAACGUCCUCAACCUACAAUGCAUUCCACCACACGAUGAUGCCUGAAGAGCCUUGGUUUUUUG [G10C A18U C88A C97U U106C],-5.16
19,GACCAAUCUACCCUCAGAGCUCGAGAACAUCUUCGGAUGCAGAGGAGGCAGGCUUCGGUGGCGCGAUAGCGCCAACGUCCUCAACCUCCAAUGCAUCCCACCACAUGAUGAUGCCUGAAGAGCCUUGGUUAUUUG [G10A U131A],-0.339
20,GACCAAUCUCUCCUCAGAGCUCGAGAACAUCUUCGGAUGCAGAGGAGGCAGGCUUCGGUGGCGCGAUAGCGCCAACGUCCUCAACCUCCAAUGGAUCCCACCACAUGAUGAUGCCUGAAGAGCCUUGGUUUUUUG [G10C C11U C94G],-0.146
21,GACCAAUCUCCCCUCAGAGCUCGAGAACAUCUUCGGAUGCAGAGGAGGCCGGCUUCGGUGGCGCGAUAUCGCCAACGUCCUCAACCUCCAAUGCAUCCCACCACAUGAUAAUCCCUGAAGAGCCUUGGUUUUUUG [G10C A50C G69U G110A G113C],-6.42
